# Test results published in patent US20190169286A1 (Chugai, published 2019).
# Where a chain is given by its changes, count along the chain named. In names and notes the source's numbering stands.
# B1: VH3-F1168m / L(WT) (antibody)
# heavy: QVQLQESGPGLVKPSETLSLTCAVSGHSISHDHAWSWVRQPPGEGLEWIGFISYSGITNYNPSLQGRVTISRDNSKNTLYLQMNSLRAEDTAVYYCARSLARTTAMDYWGEGTLVTVSSASTKGPSVFPLAPSSKSTSGGTAALGCLVKDYFPEPVTVSWNSGALTSGVHTFPAVLQSSGLYSLSSVVTVPSSSLGTQTYICNVNHKPSNTKVDKKVEPKSCDKTHTCPPCPAPELLGGPSVFLFPPKPKDTLMISRTPEVTCVVVDVSHEDPEVKFNWYVDGVEVHNAKTKPREEQYNSTYRVVSVLTVLHQDWLNGKEYKCKVSNKALPAPIEKTISKAKGQPREPQVYTLPPSREEMTKNQVSLTCLVKGFYPSDIAVEWESNGQPENNYKTTPPVLDSDGSFFLYSKLTVDKSRWQQGNVFSCSVMHEALHAHYTRKELSLSP
# light: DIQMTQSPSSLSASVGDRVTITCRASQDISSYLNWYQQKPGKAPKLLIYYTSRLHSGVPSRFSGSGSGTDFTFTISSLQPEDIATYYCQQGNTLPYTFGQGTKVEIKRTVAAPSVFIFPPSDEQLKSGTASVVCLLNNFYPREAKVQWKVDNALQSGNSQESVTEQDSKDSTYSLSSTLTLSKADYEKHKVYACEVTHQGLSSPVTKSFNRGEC
# notes: Fc: N434A/Q438R/S440E
# B2: VH3-F1927m / L(WT) (antibody)
# heavy: B1 heavy with M430L
# light: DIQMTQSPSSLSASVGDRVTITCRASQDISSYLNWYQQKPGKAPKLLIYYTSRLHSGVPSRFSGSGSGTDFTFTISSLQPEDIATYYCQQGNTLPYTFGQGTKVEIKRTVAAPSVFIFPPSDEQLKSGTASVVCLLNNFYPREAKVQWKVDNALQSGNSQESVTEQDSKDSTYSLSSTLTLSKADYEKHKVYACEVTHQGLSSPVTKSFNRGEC
# notes: Fc: M428L/N434A/Q438R/S440E
# B3: VH3-F1889m / L(WT) (antibody)
# heavy: B1 heavy with M430L, Y438V
# light: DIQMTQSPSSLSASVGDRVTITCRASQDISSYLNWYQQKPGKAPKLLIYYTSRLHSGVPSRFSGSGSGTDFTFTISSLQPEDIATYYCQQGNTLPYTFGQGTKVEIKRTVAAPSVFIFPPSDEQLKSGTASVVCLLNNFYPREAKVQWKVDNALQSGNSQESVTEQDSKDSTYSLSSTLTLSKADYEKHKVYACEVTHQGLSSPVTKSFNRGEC
# notes: Fc: M428L/N434A/Y436V/Q438R/S440E
# B4: VH3-F1886m / L(WT) (antibody)
# heavy: B1 heavy with M430L, Y438T
# light: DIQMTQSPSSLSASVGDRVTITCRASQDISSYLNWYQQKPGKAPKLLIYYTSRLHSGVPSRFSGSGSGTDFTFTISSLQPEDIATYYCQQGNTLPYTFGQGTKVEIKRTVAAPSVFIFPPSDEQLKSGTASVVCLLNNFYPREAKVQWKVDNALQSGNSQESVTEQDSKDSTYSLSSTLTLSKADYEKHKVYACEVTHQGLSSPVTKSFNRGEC
# notes: Fc: M428L/N434A/Y436T/Q438R/S440E
# B5: VH3-YTE / L(WT) (antibody, human IgG1, kappa)
# heavy: B1 heavy with M254Y, S256T, T258E, A436N, R440Q, E442S
# light: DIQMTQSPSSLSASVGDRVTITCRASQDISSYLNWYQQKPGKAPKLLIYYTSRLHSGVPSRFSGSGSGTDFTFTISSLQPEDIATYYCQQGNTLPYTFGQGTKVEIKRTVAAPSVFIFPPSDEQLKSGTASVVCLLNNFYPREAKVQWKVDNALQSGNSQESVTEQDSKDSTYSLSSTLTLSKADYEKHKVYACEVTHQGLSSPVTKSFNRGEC
# notes: Fc: M252Y/S254T/T256E
# B6: VH3-F1847m / L(WT) (antibody)
# heavy: B1 heavy with Y438T
# light: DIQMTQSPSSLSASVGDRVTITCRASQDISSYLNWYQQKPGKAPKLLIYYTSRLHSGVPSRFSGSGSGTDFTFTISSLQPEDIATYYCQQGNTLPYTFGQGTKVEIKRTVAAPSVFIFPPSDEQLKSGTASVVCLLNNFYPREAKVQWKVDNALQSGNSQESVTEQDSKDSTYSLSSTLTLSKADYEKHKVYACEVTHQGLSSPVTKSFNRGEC
# notes: Fc: N434A/Y436T/Q438R/S440E
# B7: VH3-F1848m / L(WT) (antibody)
# heavy: B1 heavy with Y438V
# light: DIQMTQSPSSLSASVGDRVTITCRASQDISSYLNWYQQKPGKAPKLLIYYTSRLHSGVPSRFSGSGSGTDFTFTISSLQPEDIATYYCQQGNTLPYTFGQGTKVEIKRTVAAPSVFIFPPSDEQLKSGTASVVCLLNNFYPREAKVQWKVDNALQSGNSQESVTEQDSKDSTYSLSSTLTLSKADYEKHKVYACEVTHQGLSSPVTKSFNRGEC
# notes: Fc: N434A/Y436V/Q438R/S440E
# B8: H1028/L0442 (antibody, human IgG1, kappa, name in Kabat numbering, V domains shown)
# VH: QVQLVESGGGLVQPGGSLRLSCAASGFTFSDYYLSWVRQAPGKGLEWVGLIRNKDNYHHPEYSASVKGRFTISRDDSKNSLYLTMSDLKTEDTAVYYCARENHRYDVELAYWGQGTLVTVSS
# VL: DIQMTQSPSSLSASVGDRVTITCRASEIIYEYLAWYQQKPGKAPKLLIYKAKTHADGVPSRFSGSGSGTDFTFTISSLQPEDIATYYCKHHFGFPRTFGQGTKVEIKR
# notes: L442 = L395 + S31E
# B9: H1048/L0442 (antibody, human IgG1, kappa, name in Kabat numbering, V domains shown)
# VH: B8 VH with D31E, Y57G, H58Y, H59T
# VL: B8 VL
# notes: L442 = L395 + S31E
# B10: H1000/L0442 (antibody, human IgG1, kappa, name in Kabat numbering, V domains shown)
# VH: B8 VH with D31E, Y57H, H59T
# VL: B8 VL
# notes: L442 = L395 + S31E
# B11: H1049/L0395 (antibody, human IgG1, kappa, name in Kabat numbering, V domains shown)
# VH: B8 VH with S30D, D31K, H59T
# VL: B8 VL with E31S
# B12: H1041/L0442 (antibody, human IgG1, kappa, name in Kabat numbering, V domains shown)
# VH: B8 VH with D31E, Y57G, H58Y
# VL: B8 VL
# notes: L442 = L395 + S31E
# B13: H0932/L0442 (antibody, human IgG1, kappa, name in Kabat numbering, V domains shown)
# VH: B8 VH with Y57H, H59T
# VL: B8 VL
# B14: H1004/L0442 (antibody, human IgG1, kappa, name in Kabat numbering, V domains shown)
# VH: B8 VH with Y57G, H58Y, H59T
# VL: B8 VL
# notes: L442 = L395 + S31E
# B15: H1029/L0442 (antibody, human IgG1, kappa, name in Kabat numbering, V domains shown)
# VH: B8 VH with S30D, D31K, Y57H, H59T
# VL: B8 VL
# notes: L442 = L395 + S31E
# B16: H1050/L0395 (antibody, human IgG1, kappa, name in Kabat numbering, V domains shown)
# VH: B8 VH with D31E, H59T
# VL: B8 VL with E31S
# B17: H1048/L0395 (antibody, human IgG1, kappa, name in Kabat numbering, V domains shown)
# VH: B8 VH with D31E, Y57G, H58Y, H59T
# VL: B8 VL with E31S
# B18: H1041/L0395 (antibody, human IgG1, kappa, name in Kabat numbering, V domains shown)
# VH: B8 VH with D31E, Y57G, H58Y
# VL: B8 VL with E31S
# B19: H1031/L0395 (antibody, human IgG1, kappa, name in Kabat numbering, V domains shown)
# VH: B8 VH with S30D, D31K, Y57H
# VL: B8 VL with E31S
# B20: H1029/L0395 (antibody, human IgG1, kappa, name in Kabat numbering, V domains shown)
# VH: B8 VH with S30D, D31K, Y57H, H59T
# VL: B8 VL with E31S
# B21: H1032/L0442 (antibody, human IgG1, kappa, name in Kabat numbering, V domains shown)
# VH: B8 VH with S30D, D31K, Y57G, H58Y
# VL: B8 VL
# notes: L442 = L395 + S31E
# B22: H1049/L0442 (antibody, human IgG1, kappa, name in Kabat numbering, V domains shown)
# VH: B8 VH with S30D, D31K, H59T
# VL: B8 VL
# notes: L442 = L395 + S31E
# B23: H1000/L0395 (antibody, human IgG1, kappa, name in Kabat numbering, V domains shown)
# VH: B8 VH with D31E, Y57H, H59T
# VL: B8 VL with E31S
# B24: H1046/L0395 (antibody, human IgG1, kappa, name in Kabat numbering, V domains shown)
# VH: B8 VH with D31E
# VL: B8 VL with E31S
# B25: H1022/L0395 (antibody, human IgG1, kappa, name in Kabat numbering, V domains shown)
# VH: B8 VH with Y57H
# VL: B8 VL with E31S
# B26: H1047/L0395 (antibody, human IgG1, kappa, name in Kabat numbering, V domains shown)
# VH: B8 VH with S30D, D31K, Y57G, H58Y, H59T
# VL: B8 VL with E31S
# B27: H1037/L0395 (antibody, human IgG1, kappa, name in Kabat numbering, V domains shown)
# VH: B8 VH with S30D, D31K
# VL: B8 VL with E31S
# B28: H1040/L0395 (antibody, human IgG1, kappa, name in Kabat numbering, V domains shown)
# VH: B8 VH with D31E, Y57H
# VL: B8 VL with E31S
# B29: H1032/L0395 (antibody, human IgG1, kappa, name in Kabat numbering, V domains shown)
# VH: B8 VH with S30D, D31K, Y57G, H58Y
# VL: B8 VL with E31S
# B30: H1022/L0442 (antibody, human IgG1, kappa, name in Kabat numbering, V domains shown)
# VH: B8 VH with Y57H
# VL: B8 VL
# notes: L442 = L395 + S31E
# B31: H1047/L0442 (antibody, human IgG1, kappa, name in Kabat numbering, V domains shown)
# VH: B8 VH with S30D, D31K, Y57G, H58Y, H59T
# VL: B8 VL
# notes: L442 = L395 + S31E
# B32: H1037/L0442 (antibody, human IgG1, kappa, name in Kabat numbering, V domains shown)
# VH: B8 VH with S30D, D31K
# VL: B8 VL
# notes: L442 = L395 + S31E
# B33: H1009/L0442 (antibody, human IgG1, kappa, name in Kabat numbering, V domains shown)
# VH: B8 VH with H59T
# VL: B8 VL
# notes: L442 = L395 + S31E
# B34: H1050/L0442 (antibody, human IgG1, kappa, name in Kabat numbering, V domains shown)
# VH: B8 VH with D31E, H59T
# VL: B8 VL
# notes: L442 = L395 + S31E
# B35: H1028/L0395 (antibody, human IgG1, kappa, name in Kabat numbering, V domains shown)
# VH: B8 VH
# VL: B8 VL with E31S
# B36: H1031/L0442 (antibody, human IgG1, kappa, name in Kabat numbering, V domains shown)
# VH: B8 VH with S30D, D31K, Y57H
# VL: B8 VL
# notes: L442 = L395 + S31E
# B37: H0932/L0395 (antibody, name in Kabat numbering, V domains shown)
# VH: B8 VH with Y57H, H59T
# VL: B8 VL with E31S
# B38: H1046/L0442 (antibody, human IgG1, kappa, name in Kabat numbering, V domains shown)
# VH: B8 VH with D31E
# VL: B8 VL
# notes: L442 = L395 + S31E
# Molecular target: T1, human FcRn (human, UniProt P55899 24-290; P61769 21-119, limits assumed)
# T1 construct: also called hFcRn
# Assay: SPR Biacore T100, Ab captured on Protein L, FcRn analyte, pH 6.0, 25C
# Procedure: Antibodies containing VH3-IgG1m or an above-mentioned variant as the heavy chain and L(WT) (SEQ ID NO:1) as the light chain were produced by the method of Reference Example 2, and the binding activity toward human FcRn was evaluated as follows.
# Kinetic analyses of human FcRn and each of the antibodies were carried out using BIACORE T100 (GE Healthcare). […] For the running buffer, 50 mM sodium phosphate, 150 mM NaCl, and 0.05% (w/v) Tween 20 at pH 6.0 was used, and the respective buffer was also used to dilute FcRn. […] All measurements were carried out at 25° C.
row,Kd,Binder
1,410 nM,B1
2,125 nM,B2
3,103 nM,B3
4,108 nM,B4
5,148 nM,B5
6,367 nM,B6
7,295 nM,B7

# Molecular target: T2, human IL-8 (human, UniProt P10145 23-99, limits assumed)
# T2 construct: also called hIL-8; hIL8
# T2 sequence (P10145 23-99 limits assumed): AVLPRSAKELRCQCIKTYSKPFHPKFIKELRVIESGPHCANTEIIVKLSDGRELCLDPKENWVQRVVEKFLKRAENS
# Assay: SPR Biacore T200, Protein A/G capture, pH 5.8, 37C;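 note: antibodies captured by Protein A/G amine-coupled onto a CM4 sensor chip, with kinetic parameters derived using Biacore T200 Evaluation Software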
# Procedure: (§1) An appropriate amount of Protein A/G (PIERCE) was immobilized onto the Sensor chip CM4 (GE Healthcare) by the amine coupling method and the antibodies of interest were captured. […] To regenerate the sensor chip, 25 mM NaOH and 10 mM glycine-HCl (pH 1.5) were used. […] The BIACORE T200 Evaluation Software (GE Healthcare) was used to calculate each parameter.
Kd,koff,Binder
140 nM,0.13 s⁻¹,B8
67 nM,,B9
71 nM,0.017 s⁻¹,B10
38 nM,0.004 s⁻¹,B11
61 nM,0.015 s⁻¹,B12
79 nM,,B13
77 nM,0.02 s⁻¹,B14
48 nM,0.0085 s⁻¹,B15
77 nM,0.005 s⁻¹,B16
90 nM,,B17
71 nM,0.013 s⁻¹,B18
99 nM,,B19
55 nM,0.008 s⁻¹,B20
43 nM,0.0059 s⁻¹,B21
33 nM,0.0045 s⁻¹,B22
89 nM,0.02 s⁻¹,B23
160 nM,0.012 s⁻¹,B24
290 nM,12 s⁻¹,B25
47 nM,0.006 s⁻¹,B26
70 nM,0.015 s⁻¹,B27
240 nM,0.046 s⁻¹,B28
50 nM,0.0041 s⁻¹,B29
180 nM,0.02 s⁻¹,B30
47 nM,,B31
61 nM,0.015 s⁻¹,B32
63 nM,0.006 s⁻¹,B33
54 nM,0.0076 s⁻¹,B34
210 nM,,B35
89 nM,,B36

# Molecular target: T2, human IL-8
# Assay: SPR Biacore T200, Protein A/G capture, pH 7.4, 40C;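 note: antibodies captured via Protein A/G, which was amine-coupled to a CM4 sensor chip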
# Procedure: as §1
row,Kd,Binder
1,0.16 nM,B37
2,0.24 nM,B8
3,0.2 nM,B10
4,0.025 nM,B11
5,0.12 nM,B12
6,0.22 nM,B14
7,0.14 nM,B15
8,0.066 nM,B16
9,0.08 nM,B18
10,0.086 nM,B20
11,0.078 nM,B21
12,0.053 nM,B22
13,0.23 nM,B38
14,0.14 nM,B23
15,0.18 nM,B24
16,0.27 nM,B25
17,0.095 nM,B26
18,0.094 nM,B27
19,0.26 nM,B28
20,0.042 nM,B29
21,0.36 nM,B30
22,0.13 nM,B32
23,0.11 nM,B33
24,0.099 nM,B34
25,0.18 nM,B35
